1 molecule from US8999894 (ALBERT EINSTEIN COLLEGE OF MEDICINE OF YESHIVA UNIVERSITY, dated 2015) can be followed below.

In assay [1] the target is T1, recombinant E. coli DNA gyrase (E. coli, UniProt P0AES4 2-875; P0AES6 2-804). In words: SPR (BIAcore 3000), MfpA amine-coupled to CM5 chip, E. coli DNA gyrase as analyte, 1:1 Langmuir fit. (Surface plasmon resonance follows binding to a sensor surface in real time, without labels.)
The target in assay [2] is T1, recombinant E. coli DNA gyrase. In words: cell-based or functional assay.

T1 sequence (P0AES4 2-875 limits assumed, one chain of several): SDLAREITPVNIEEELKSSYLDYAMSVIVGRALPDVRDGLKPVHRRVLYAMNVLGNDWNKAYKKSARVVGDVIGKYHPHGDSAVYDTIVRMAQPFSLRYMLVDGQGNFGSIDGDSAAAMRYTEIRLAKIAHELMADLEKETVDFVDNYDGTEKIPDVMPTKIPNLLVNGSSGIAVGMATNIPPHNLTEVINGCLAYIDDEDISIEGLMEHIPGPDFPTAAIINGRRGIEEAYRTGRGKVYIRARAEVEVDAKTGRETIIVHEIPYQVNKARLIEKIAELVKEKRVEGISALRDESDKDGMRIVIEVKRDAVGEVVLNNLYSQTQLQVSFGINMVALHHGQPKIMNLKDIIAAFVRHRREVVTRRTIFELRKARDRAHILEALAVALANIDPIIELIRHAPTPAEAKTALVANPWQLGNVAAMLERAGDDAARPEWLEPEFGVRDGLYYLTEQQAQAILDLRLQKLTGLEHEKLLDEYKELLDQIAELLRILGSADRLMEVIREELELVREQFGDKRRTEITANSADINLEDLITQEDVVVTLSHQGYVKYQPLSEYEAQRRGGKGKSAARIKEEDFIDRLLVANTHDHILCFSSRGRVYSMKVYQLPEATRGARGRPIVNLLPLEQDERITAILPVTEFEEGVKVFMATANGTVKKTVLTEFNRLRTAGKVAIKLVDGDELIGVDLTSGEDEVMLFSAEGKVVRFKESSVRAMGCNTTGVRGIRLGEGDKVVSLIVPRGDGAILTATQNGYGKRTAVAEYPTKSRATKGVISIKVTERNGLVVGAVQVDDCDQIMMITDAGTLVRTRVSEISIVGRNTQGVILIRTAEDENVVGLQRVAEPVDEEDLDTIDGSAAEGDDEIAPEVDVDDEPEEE

B1: Mycobacterium tuberculosis MfpA pentapeptide repeat protein (Rv3361c gene product) (other)
chain: QQWVDCEFTGRDFRDEDLSRLHTERAMFSECDFSGVNLAESQHRGSAFRNCTFERTTLWHSTFAQCSMLGSVFVACRLRPLTLDDVDFTLAVLGGNDLRGLNLTGCRLRETSLVDTDLRKCVLRGADLSGARTTGARLDDADLRGATVDPVLWRTASLVGARVDVDQAVAFAAAHGLCLA
notes: also called MtMfpA
As for B1, in assay [1], the Kd (commonly the concentration at which binding is half-saturated) is 460 nM and the koff (commonly the first-order rate constant of dissociation) is around 0.0001 s⁻¹. Moreover, in assay [2], the “inhibition of ATP-dependent DNA supercoiling by E. coli DNA gyrase, apparent IC50” value is around 1200 nM and the “inhibition of ATP-independent relaxation by E. coli DNA gyrase, apparent IC50” value is around 1200 nM.
